Reference: patent publication US20180080944A1

How the values were obtained:
[1] = target: Src homology 3 domain binding protein 5 (SH3BP5 or SAB), ectopically expressed from pLOC:Sab (UniProt O60239); assay: cell-based or functional assay
[2] = target: Sab:KIM1/2 L-A (MAPK/JNK-binding deficient mutant of Sab, pLOC:Sab:KIM1/2 L-A) (UniProt O60239); assay: cell-based or functional assay
Chain of Sab:KIM1/2 L-A (MAPK/JNK-binding deficient mutant of Sab, pLOC:Sab:KIM1/2 L-A) (O60239 other isoform, or with tags, fused parts or gaps mutant limits assumed): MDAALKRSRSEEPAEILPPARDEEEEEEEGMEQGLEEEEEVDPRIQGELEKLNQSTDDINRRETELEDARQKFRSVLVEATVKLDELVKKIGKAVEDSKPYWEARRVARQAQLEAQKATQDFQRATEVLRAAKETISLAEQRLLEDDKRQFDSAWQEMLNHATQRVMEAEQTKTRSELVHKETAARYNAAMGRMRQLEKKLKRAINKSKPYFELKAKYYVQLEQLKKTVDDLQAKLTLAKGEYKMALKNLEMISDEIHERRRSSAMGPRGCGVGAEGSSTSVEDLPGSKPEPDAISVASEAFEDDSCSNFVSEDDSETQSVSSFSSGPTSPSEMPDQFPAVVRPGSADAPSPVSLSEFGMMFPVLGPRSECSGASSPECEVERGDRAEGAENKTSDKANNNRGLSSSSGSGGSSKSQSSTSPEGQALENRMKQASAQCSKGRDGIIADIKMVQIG

Chain of Src homology 3 domain binding protein 5 (SH3BP5 or SAB), ectopically expressed from pLOC:Sab (O60239 whole entry): as the sequence (O60239 other isoform, or with tags, fused parts or gaps mutant limits assumed) above, with A347L, A349L, A434L, A436L counted along it

## c-Jun N-terminal Kinase (JNK) (enzyme)
[1]
  Cisplatin IC50 (nM), HeLa cells with ectopic expression, TO-PRO-3 staining: 0.42 nM
  Paclitaxel IC50 (µM), HeLa cells with ectopic expression, TO-PRO-3 staining: 4.7 µM
  fold decrease in the IC50 of paclitaxel in HeLa cells against untreated, mock-transfected or RFP-expressing cells: 5 fold
[2]
  Cisplatin IC50 (nM), HeLa cells with ectopic expression, TO-PRO-3 staining: 3.1 nM
  Paclitaxel IC50 (µM), HeLa cells with ectopic expression, TO-PRO-3 staining: 13.8 µM
